The MegaScale stability set (Tsuboyama et al. 2023)

B1: EEHEE_rd4_0003 (parent)
chain: KKVTINGVEIKFNNPEEAVKFALELAKRLNLRIEFHGDQIKIE

Variants of: B1
Experiment: folding stability dG (cDNA display proteolysis); higher = more stable
Settings: PBS, room temperature

| Variant | folding stability dG |
| --- | --- |
| H36C | 3.21 kcal/mol |
| H36F | 2.78 kcal/mol |
| H36K | 2.53 kcal/mol |
| H36Y | 2.75 kcal/mol |
| H36V | 2.89 kcal/mol |
| H36I | 2.93 kcal/mol |
| H36L | 2.88 kcal/mol |
| H36Q | 2.56 kcal/mol |
| H36M | 2.72 kcal/mol |
| H36S | 2.66 kcal/mol |
| H36P | 1.71 kcal/mol |
| H36A | 2.62 kcal/mol |
| H36W | 2.73 kcal/mol |
| H36D | 2.76 kcal/mol |
| H36N | 2.58 kcal/mol |
| H36R | 2.52 kcal/mol |
| H36G | 2.28 kcal/mol |
| H36T | 2.7 kcal/mol |
| H36E | 2.58 kcal/mol |
| I40A | 1.49 kcal/mol |
| I33L | 2.35 kcal/mol |
| I33K | 0.882 kcal/mol |
| I33A | 1.69 kcal/mol |
| I33F | 1.98 kcal/mol |

| Variant | folding stability dG |
| --- | --- |
| I33Y | 1.74 kcal/mol |
| I33M | 1.92 kcal/mol |
| I33P | 1.29 kcal/mol |
| I33E | 0.529 kcal/mol |
| I33V | 2.67 kcal/mol |
| I33G | 0.975 kcal/mol |
| I33R | 0.847 kcal/mol |
| I33S | 0.908 kcal/mol |
| I33T | 1.31 kcal/mol |
| I33D | 0.681 kcal/mol |
| I33Q | 1.08 kcal/mol |
| I33H | 0.908 kcal/mol |
| I33W | 2.08 kcal/mol |
| I33N | 0.797 kcal/mol |
| L31F | 2.25 kcal/mol |
| L31G | 2.42 kcal/mol |
| L31T | 1.71 kcal/mol |
| L31K | 1.2 kcal/mol |
| L31H | 1.4 kcal/mol |
| L31Q | 1.13 kcal/mol |
| L31S | 1.7 kcal/mol |
| L31P | 0.746 kcal/mol |
| L31R | 1.34 kcal/mol |
| L31V | 2.56 kcal/mol |

| Variant | folding stability dG |
| --- | --- |
| L31E | 0.917 kcal/mol |
| L31M | 2.67 kcal/mol |
| L31Y | 2.14 kcal/mol |
| L31N | 0.824 kcal/mol |
| L31W | 2.51 kcal/mol |
| L31I | 2.5 kcal/mol |
| Q39T | 3.22 kcal/mol |
| Q39L | 2.95 kcal/mol |
| Q39I | 3.05 kcal/mol |
| Q39P | 1.77 kcal/mol |
| Q39W | 3.07 kcal/mol |
| Q39E | 2.92 kcal/mol |
| Q39R | 2.52 kcal/mol |
| Q39D | 2.64 kcal/mol |
| Q39A | 2.62 kcal/mol |
| Q39N | 2.82 kcal/mol |
| Q39F | 2.91 kcal/mol |
| Q39G | 2.52 kcal/mol |
| Q39S | 2.75 kcal/mol |
| Q39K | 2.33 kcal/mol |
| Q39Y | 3.04 kcal/mol |
| Q39H | 2.91 kcal/mol |
| Q39V | 3.18 kcal/mol |
| Q39C | 3.11 kcal/mol |

| Variant | folding stability dG |
| --- | --- |
| Q39M | 2.88 kcal/mol |
| F35P | 1.31 kcal/mol |
| F35W | 2.7 kcal/mol |
| F35A | 1.71 kcal/mol |
| F35E | 1.63 kcal/mol |
| F35G | 1.41 kcal/mol |
| F35L | 2.2 kcal/mol |
| F35I | 2.58 kcal/mol |
| F35S | 1.64 kcal/mol |
| F35Y | 2.41 kcal/mol |
| F35M | 2.24 kcal/mol |
| F35T | 1.82 kcal/mol |
| F35C | 3.05 kcal/mol |
| F35K | 1.78 kcal/mol |
| F35R | 1.8 kcal/mol |
| F35Q | 1.79 kcal/mol |
| F35H | 1.88 kcal/mol |
| F35V | 2.37 kcal/mol |
| F35D | 1.5 kcal/mol |
| F35N | 1.46 kcal/mol |
| D38V | 2.23 kcal/mol |
| D38G | 2.31 kcal/mol |
| D38C | 3.49 kcal/mol |
| D38T | 2.29 kcal/mol |

| Variant | folding stability dG |
| --- | --- |
| D38S | 2.32 kcal/mol |
| D38P | 2.1 kcal/mol |
| D38I | 2.49 kcal/mol |
| D38N | 2.61 kcal/mol |
| D38F | 2.7 kcal/mol |
| D38A | 2.15 kcal/mol |
| D38M | 2.34 kcal/mol |
| D38R | 2.01 kcal/mol |
| D38E | 2.3 kcal/mol |
| D38H | 2.25 kcal/mol |
| D38K | 2.15 kcal/mol |
| D38Y | 2.45 kcal/mol |
| D38W | 2.73 kcal/mol |
| D38Q | 2.25 kcal/mol |
| D38L | 2.33 kcal/mol |
| G37K | 2.47 kcal/mol |
| G37V | 2.38 kcal/mol |
| G37R | 2.29 kcal/mol |
| G37W | 2.44 kcal/mol |
| G37Q | 2.44 kcal/mol |
| G37M | 2.52 kcal/mol |
| G37Y | 2.41 kcal/mol |
| G37C | 2.68 kcal/mol |
| G37P | 2.49 kcal/mol |

| Variant | folding stability dG |
| --- | --- |
| G37H | 2.42 kcal/mol |
| G37E | 2.52 kcal/mol |
| G37I | 2.35 kcal/mol |
| G37T | 2.26 kcal/mol |
| G37S | 2.35 kcal/mol |
| G37F | 2.48 kcal/mol |
| G37N | 2.41 kcal/mol |
| G37D | 2.45 kcal/mol |
| G37L | 2.45 kcal/mol |
| G37A | 2.39 kcal/mol |
| E34F | 2.74 kcal/mol |
| E34Q | 2.44 kcal/mol |
| E34V | 2.73 kcal/mol |
| E34A | 2.29 kcal/mol |
| E34Y | 2.77 kcal/mol |
| E34K | 2.42 kcal/mol |
| E34W | 2.62 kcal/mol |
| E34I | 2.93 kcal/mol |
| E34P | 1.48 kcal/mol |
| E34N | 2.27 kcal/mol |
| E34D | 2.12 kcal/mol |
| E34S | 2.77 kcal/mol |
| E34M | 2.47 kcal/mol |
| E34R | 2.58 kcal/mol |

| Variant | folding stability dG |
| --- | --- |
| E34T | 2.86 kcal/mol |
| E34H | 2.42 kcal/mol |
| E34L | 2.49 kcal/mol |
| E34G | 1.96 kcal/mol |
| E34C | 3.19 kcal/mol |
| R32Y | 2.15 kcal/mol |
| R32L | 2.19 kcal/mol |
| R32F | 2.12 kcal/mol |
| R32N | 2.03 kcal/mol |
| R32D | 1.56 kcal/mol |
| R32G | 1.6 kcal/mol |
| R32M | 2.07 kcal/mol |
| R32H | 2.24 kcal/mol |
| R32V | 2.33 kcal/mol |
| R32E | 1.64 kcal/mol |
| R32W | 2.2 kcal/mol |
| R32I | 2.36 kcal/mol |
| R32Q | 2.1 kcal/mol |
| R32K | 2.54 kcal/mol |
| R32C | 2.81 kcal/mol |
| R32S | 2.17 kcal/mol |
| R32P | 1.71 kcal/mol |
| R32T | 2.31 kcal/mol |
